Data on six molecules can be found in patent publication US8343503B2, “Contiguous overlapping peptides for treatment of birch pollen allergy” (Anergis S.A., priority 2009, dated 2013).

Where two headings read alike, the source gives them in different places. No end group written: not given here.

For data set [1], the system named is birch pollen allergic volunteers. As to conditions: human, in vivo.
Method: (§1) The allergenic response of the peptides was evaluated in vivo by SPT with each of the 5 peptides (AllerT1, AllerT2, AllerT3, AllerT4 and AllerT5) and with the 2 sets (AllerT1-3 and AllerT4-5) on all patients. For each peptide, a 20 μl drop was applied on the forearm at 3 different concentrations (10, 1 and 0.1 μM). […] The weal diameter was evaluated by taking the maximal diameter. SPT was considered positive when the weal diameter was 4 mm or more with an erythema (Hoffmann, A. et al., J Allergy Clin Immunol, 99(2):227-32 (1997). Reactions resulting in a weal diameter below 4 mm, while exceeding 2 mm, were also recorded and classified as “dubious”.
Data set [2] concerns basophils (IgE-positive cells) in blood from a birch pollen allergic donor. Briefly: Basophil degranulation test (Basotest). The format is cell-based, human. As to conditions: blood of birch pollen allergic donor; r Bet v 1 0.0025-25 nano-molar, COPs starting 10 fold higher; FIG. 4. On the procedure: Basotest® (ORPEGEN Pharma Heidelberg, Germany) was used for the quantitative determination of in vitro basophile degranulation. Heparinized blood (100 μl) from a birch pollen allergic donor was first incubated with a stimulation buffer for 20 min at 37° C., and then with or without chemotactic peptide formylmethionylleucylphenylalanine (fMLP) as positive and negative controls respectively. Aliquots of blood were incubated in parallel with 100 μl allergen solution diluted in a saline solution for 20 min at 37° C. A dose response curve was performed with 25, 2.5, 0.25, 0.025 and 0.0025 nano-molar r Bet v 1 as well as starting 10 fold higher with AllerT mixes (AllerT1-T3, AllerT4-5 and AllerT6-8). The activation process was stopped by incubating the blood samples at 4° C. for 10 min. The samples were then incubated for 20 min at +4° C. with 20 μl of phycoerythrin (PE)-conjugated anti-IgE and fluorescein isothyocyanate (FITC)-conjugated anti-gp53 (CD63). Erythrocytes were subsequently removed by the addition of 2 ml of lysing solution (Becton-Dickinson). Cells were washed twice with PBS solution and resuspended in 200 μl of PBS solution and analyzed within 1 h by cytofluorimetry (FASCalibur, BectonDickinson). The basophile population was gated on the PE anti-IgE positive cells and the expression of gp53 (CD63) was analyzed on this population. […]

A further data set deals with Bet v 1 specific IgE. Put plainly: Competition ELISA: IgE binding of COPs compared to r Bet v 1. On the set-up: species or system human. As to conditions: for competition for IgE binding to coated r Bet v 1: serial dilutions starting at 10 μM pre-incubated with serum of birch pollen allergic subjects; for competition with Bet v 1 for IgE binding / residual IgE binding: sera from three allergic patients (data not shown). On the procedure:
Recombinant Bet v 1 at 0.5 μg/ml (r Bet v 1 obtained from Biomay, Austria) was coated overnight on 96-well Nunc Maxisorp® immunoplates (Life Technologies, Basel, Switzerland). After blocking with 1% BSA, ten-fold dilutions of patient serum were added. […] The sera of three allergic patients were selected for high IgE level and clear signal over background and used to test for competition with the peptides. Serial dilutions of each COP, namely AllerT1, AllerT2, AllerT3, AllerT4, AllerT5, AllerT6, AllerT7 and AllerT8, or mixtures of AllerT1-3, AllerT4-5 and AllerT6-8, starting at 10 μM, were pre-incubated with the three selected sera overnight at 4° C. Sera were then incubated on r Bet v 1 coated 96-well plates and residual IgE binding was determined as described above. r Bet v 1 dilutions were used as control for inhibition, whereas BSA was used as control for possible non-specific inhibition.
On the technique in general: An ELISA detects its analyte on a solid surface through an enzyme-linked reagent.

For data set [3], the system named is birch pollen allergic volunteers. Briefly: Skin prick tests (SPT) of allergic patients. As to conditions: for Positive skin reactions (subjects) / Reactivity lower than defined threshold (dubious) (subjects): 20 volunteers.
Method: as §1
Where [4] appears, read: dilution 1:1, weal 4 mm or more with erythema.

For `CC[C@H](C)[C@H](NC(=O)[C@H](C)NC(=O)[C@H](CCC(N)=O)NC(=O)[C@@H]1CCCN1C(=O)[C@H](C)NC(=O)[C@@H](NC(=O)[C@H](CCCCN)NC(=O)[C@@H]1CCCN1C(=O)[C@H](Cc1ccccc1)NC(=O)[C@H](CC(C)C)NC(=O)[C@H](CC(N)=O)NC(=O)[C@H](CC(=O)O)NC(=O)CNC(=O)[C@H](CC(=O)O)NC(=O)[C@H](CC(C)C)NC(=O)[C@@H](NC(=O)[C@H](Cc1ccccc1)NC(=O)[C@H](C)NC(=O)[C@H](CCCCN)NC(=O)[C@H](Cc1ccccc1)NC(=O)[C@H](CC(C)C)NC(=O)[C@H](CCCNC(=N)N)NC(=O)[C@H](C)NC(=O)[C@H](C)NC(=O)[C@@H]1CCCN1C(=O)[C@@H](NC(=O)[C@@H](NC(=O)[C@H](CO)NC(=O)[C@@H](NC(=O)[C@@H](NC(=O)[C@H](CCC(=O)O)NC(=O)[C@@H](NC(=O)[C@H](CCC(=O)O)NC(=O)[C@H](Cc1ccc(O)cc1)NC(=O)[C@H](CC(N)=O)NC(=O)[C@H](Cc1ccccc1)NC(=O)[C@@H](NC(=O)CN)C(C)C)[C@@H](C)O)[C@@H](C)O)[C@@H](C)O)C(C)C)[C@@H](C)CC)[C@@H](C)CC)C(C)C)C(=O)N[C@@H](CO)C(=O)N[C@@H](CO)C(=O)N[C@H](C(=O)N[C@@H](CCC(=O)O)C(=O)N[C@@H](CC(N)=O)C(=O)N[C@H](C(=O)N[C@@H](CCC(=O)O)C(=O)NCC(=O)N[C@@H](CC(N)=O)C(=O)NCC(=O)NCC(=O)O)[C@@H](C)CC)C(C)C` [AllerT1], in data set [1], the “Positive skin reactions (subjects)” value stood at 0.

As to “VATPDGGSILKISNKYHTKGDHEVKAEQVKASKEMGETLLRAVESYLLAHSDAYN [AllerT3]”, in data set [1], the “Positive skin reactions (subjects)” value stood at 0.

B1: r Bet v 1: Purified recombinant Bet v 1, birch pollen major allergen, purchased from BIOMAY; SEQ ID 9, Swissprot P15494 (protein)
chain: MGVFNYETETTSVIPAARLFKAFILDGDNLFPKVAPQAISSVENIEGNGGPGTIKKISFPEGFPFKYVKDRVDEVDHTNFKYNYSVIEGGPIGDTLEKISNEIKIVATPDGGSILKISNKYHTKGDHEVKAEQVKASKEMGETLLRAVESYLLAHSDAYN
As to B1, in data set [2], the “basophil degranulation (IgE-positive cells expressing CD63)” value is reported as “concentration dependent manner”. Further, the IC50 on Bet v 1 specific IgE (depending on the serum of the donor, FIG. 1, read-out: concentration competing with IgE present in the sera (50% inhibition)) fell in the range of 0.0001 to 10 µM. Also, in data set [3] (birch pollen extract 100,000 SQ, recombinant Bet v 1 1 μM), the SPT result is listed as “positive in all volunteers”. Moreover, the “Positive skin reactions (subjects)” value in data set [3] (setting [4]) was found to be 20; in data set [3] (dilution 1:10) it was 16; in data set [3] (dilution 1:100), 2.

B2: AllerT2: SEQ ID NO: 2, aa 48-118 of SEQ ID 9 (Bet v 1) contiguous overlapping peptide (peptide)
chain: NGGPGTIKKISFPEGFPFKYVKDRVDEVDHTNFKYNYSVIEGGPIGDTLEKISNEIKIVATPDGGSILKIS
Turning to B2, in the data set on Bet v 1 specific IgE (FIG. 1), the “competition for IgE binding to coated r Bet v 1” value (“competition for IgE binding” below) is reported as “no competition”. In addition, the “Positive skin reactions (subjects)” value in data set [3] (setting [4]), in data set [3] (dilution 1:10) and in data set [3] (dilution 1:100) was 0 in each case. Besides, the “Reactivity lower than defined threshold (dubious) (subjects)” value (shortened to “Reactivity lower than defined threshold”) in data set [3] (dilution 1:1, weal below 4 mm) was 0; in data set [3] (dilution 1:10), 0; in data set [3] (dilution 1:100), 0.

B3: AllerT4: SEQ ID NO: 4, aa 2-85 of SEQ ID 9 (Bet v 1) contiguous overlapping peptide (peptide)
chain: GVFNYETETTSVIPAARLFKAFILDGDNLFPKVAPQAISSVENIEGNGGPGTIKKISFPEGFPFKYVKDRVDEVDHTNFKYNYS
For the molecule B3, the “competition with Bet v 1 for IgE binding / residual IgE binding” value in the data set with Bet v 1 specific IgE is reported as “do not show such binding”. In the data set on Bet v 1 specific IgE (FIG. 1), the “competition for IgE binding” value is on record as “comparable result”. The “Positive skin reactions (subjects)” value in data set [3] (setting [4]), in data set [3] (dilution 1:10) and in data set [3] (dilution 1:100) was 0 throughout. The “Reactivity lower than defined threshold” value came out at 0 in data set [3] (dilution 1:1, weal below 4 mm); 0 in data set [3] (dilution 1:10); 1 in data set [3] (dilution 1:100).

B4: AllerT5: SEQ ID NO: 5, aa 65-160 of SEQ ID 9 (Bet v 1) contiguous overlapping peptide (peptide)
chain: FKYVKDRVDEVDHTNFKYNYSVIEGGPIGDTLEKISNEIKIVATPDGGSILKISNKYHTKGDHEVKAEQVKASKEMGETLLRAVESYLLAHSDAYN
In the case of B4, the “competition with Bet v 1 for IgE binding / residual IgE binding” value in the data set with Bet v 1 specific IgE is “do not show such binding”. For the same molecule, in the data set with Bet v 1 specific IgE (FIG. 1), the “competition for IgE binding” value is “comparable result”. Moreover, the “Positive skin reactions (subjects)” value in data set [3] (setting [4]), in data set [3] (dilution 1:10) and in data set [3] (dilution 1:100) was 0 each time. Further, the “Reactivity lower than defined threshold” value is 1 in data set [3] (dilution 1:1, weal below 4 mm); 0 in data set [3] (dilution 1:10); 0 in data set [3] (dilution 1:100).
